Reference: US20090075340A1 (Novo Nordisk, published 2009)

B1: murine IgG1 monoclonal antibody 1-26F117-A3 (antibody, V domains shown)
VH: EVQLQQSGPELVKPGASVKISCKASDYSFTGYFMNWVMQSQEKSLEWIGRINPFNGDAFYNQKFKGKATLTVDKSSNTAHMELRSLTSEDSAVYYCARLDYRGYFFDYWGQGTTLTVSS
VL: DIVMTQSQKFMSTTVGDRVSITCKASQSVGSAVGWYQQKPGQSPKLLIYSASTRYTGVPDRFTGSGSGTDFTLTITNMQSDDLADYFCHQYSRYPLSFGSGTKLEMKR
B2: murine IgG1 monoclonal antibody 1-26F117-A4 (antibody, V domains shown)
VH: QVQLKESGPGLVAPSQSLSITCTVSGFSLTDYGVSWVRQPPGKGLEWLGLIWGDGRTNYHSALISRLSISKDNSKSQVFLKLNSLQIDDTATYYCARRGAMDYWGQGTSVTVSS
VL: B1 VL

Target: KIR2DL1 expressed on YTS-2DL1 NK cells (human, UniProt P43626 22-348)
Sequence (P43626 other isoform, or with tags, fused parts or gaps limits assumed): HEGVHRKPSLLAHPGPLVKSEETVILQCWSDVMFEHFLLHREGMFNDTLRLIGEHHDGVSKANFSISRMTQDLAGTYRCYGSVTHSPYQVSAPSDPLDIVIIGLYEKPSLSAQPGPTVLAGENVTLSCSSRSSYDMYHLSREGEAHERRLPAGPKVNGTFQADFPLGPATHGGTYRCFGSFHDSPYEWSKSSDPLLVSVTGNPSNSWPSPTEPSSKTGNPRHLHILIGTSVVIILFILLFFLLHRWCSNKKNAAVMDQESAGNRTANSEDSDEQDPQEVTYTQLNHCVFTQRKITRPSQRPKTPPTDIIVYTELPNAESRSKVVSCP
Assay: cell-based or functional assay

| Binder | killing of LCL 721.221-Cw4 cells by YTS-2DL1, fold over killing in the absence of mAb's |
| --- | --- |
| B1 | 3.7 fold |
| B2 | ~2 fold |
